For one data set, the target named is T1, 9°N-I DNA polymerase (Thermococcus sp., UniProt Q56366, A485L/D141A/E143A).
T1 construct: made in house; host or cells: E. coli BL21
Kind of data set: Pre-steady state kinetic assay. The data set is classed as biochemical, Thermococcus sp. 9° N-7 strain. The settings on record: 30° C. On the procedure:
The rate of incorporation of the correct base onto the 25/36 mer duplex was determined in a reaction. The reaction was initiated by combining the solution containing the enzyme and DNA substrate with the second solution containing Mg^2+/dNTP. The reaction was quenched with 0.25 M EDTA (final concentration), pH 8.0. A rapid quench instrument (KinTek Instrument Corp., State College, Pa.) was used for reaction times ranging from 20 ms to 20 s.

For data set [1], the target named is T2, Klenow (exo-) fragment DNA polymerase (Escherichia coli, UniProt P00582, D355A/E357A).
T2 construct: Klenow (exo-) fragment DNA polymerase; purchased New England Biolabs
The format is biochemical. The settings on record: PEP assay, read-out: Average IC50 ± SD. On the procedure:
(§1) Accordingly, the end-point concentration, IC50 value, of the respective nucleotide was calculated.

The next data set deals with THN (Therminator). Kind of data set: Polymerase end point (PEP) assay. The format is biochemical. The note with it: read-out: Average IC50 ± SD. On the procedure: as §1
Data set [2] has as its target T3, Bst-Lg (Bst Large fragment DNA polymerase) (Geobacillus stearothermophilus, UniProt P52026).
T3 construct: Bst Large fragment DNA polymerase; purchased New England Biolabs
T3 sequence (P52026 289-876 limits assumed): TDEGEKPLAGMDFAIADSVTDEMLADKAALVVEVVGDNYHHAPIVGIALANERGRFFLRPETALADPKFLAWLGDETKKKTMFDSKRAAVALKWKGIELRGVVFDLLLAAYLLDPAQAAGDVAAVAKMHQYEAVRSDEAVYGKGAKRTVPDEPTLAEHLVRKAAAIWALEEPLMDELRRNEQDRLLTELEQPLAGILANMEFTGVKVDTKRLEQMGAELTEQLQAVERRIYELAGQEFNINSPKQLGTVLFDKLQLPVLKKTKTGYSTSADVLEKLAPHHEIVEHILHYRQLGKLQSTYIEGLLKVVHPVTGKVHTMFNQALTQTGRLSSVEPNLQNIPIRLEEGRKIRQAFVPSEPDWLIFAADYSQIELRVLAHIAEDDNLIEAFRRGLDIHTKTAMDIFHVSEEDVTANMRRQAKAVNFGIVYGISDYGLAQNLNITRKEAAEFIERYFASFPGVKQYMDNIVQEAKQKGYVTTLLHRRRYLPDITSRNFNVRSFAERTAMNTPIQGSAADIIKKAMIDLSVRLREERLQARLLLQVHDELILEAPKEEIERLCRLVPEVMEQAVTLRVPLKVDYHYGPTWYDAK
Kind of data set: Polymerase end point (PEP) assay. The data set is classed as biochemical. The settings on record: read-out: Average IC50 ± SD. On the procedure: as §1

The next data set has as its target T4, 9°N-III DNA polymerase (Thermococcus sp., UniProt Q56366, A485L/D141A/E143A/L408S/P410V/Y409A).
T4 construct: 6x histidine tag (C); made in house; host or cells: E. coli BL21
The format is biochemical, Thermococcus sp. 9° N-7 strain. The settings on record: PEP assay, read-out: Average IC50 ± SD. On the procedure:
as §1

Data set [3] concerns 5′Q-3′-Ga. The data set is classed as biochemical. The note with it: KOD^exo− background.
Data set [4] has as its system 5′Q-3′-Ga.

Changes are numbered by the printed parent chain. In names and notes the source's numbering stands.

Consider `Nc1ncnc2c1ncn2[C@H]1C[C@H](O)[C@@H](COP(=O)(O)OP(=O)(O)OP(=O)(O)O)O1` [dATP], for which the Kd (as a rule, the free concentration of one partner at which half of the binding sites on the other are occupied at equilibrium, for simple one-to-one binding) on 9°N-I DNA polymerase was found to be 8000 nM. The kpol at 9°N-I DNA polymerase amounted to 132.4 s⁻¹. The molecule also had a kpol/Kd at 9°N-I DNA polymerase of 1.655e+07 M⁻¹ s⁻¹. The half-maximal inhibitory concentration (IC50) (usually the concentration that gives 50% inhibition) in data set [1] stood at 0.589 ± 0.008 nM; on THN (Therminator) it was 0.526 ± 0.008 nM; in data set [2], 2.54 ± 0.067 nM; on 9°N-III DNA polymerase it was 14 ± 0.6 nM.

B1: KOD^exo−: KOD^exo− DNA polymerase with mutations at residues 141 and 143 (SEQ ID NO: 5) (protein)
chain: MILDTDYITEDGKPVIRIFKKENGEFKIEYDRTFEPYFYALLKDDSAIEEVKKITAERHGTVVTVKRVEKVQKKFLGRPVEVWKLYFTHPQDVPAIRDKIREHPAVIDIYEYDIPFAKRYLIDKGLVPMEGDEELKMLAFAIATLYHEGEEFAEGPILMISYADEEGARVITWKNVDLPYVDVVSTEREMIKRFLRVVKEKDPDVLITYNGDNFDFAYLKKRCEKLGINFALGRDGSEPKIQRMGDRFAVEVKGRIHFDLYPVIRRTINLPTYTLEAVYEAVFGQPKEKVYAEEITTAWETGENLERVARYSMEDAKVTYELGKEFLPMEAQLSRLIGQSLWDVSRSSTGNLVEWFLLRKAYERNELAPNKPDEKELARRRQSYEGGYVKEPERGLWENIVYLDFRSLYPSIIITHNVSPDTLNREGCKEYDVAPQVGHRFCKDFPGFIPSLLGDLLEERQKIKKKMKATIDPIERKLLDYRQRAIKILANSYYGYYGYARARWYCKECAESVTAWGREYITMTIKEIEEKYGFKVIYSDTDGFFATIPGADAETVKKKAMEFLKYINAKLPGALELEYEGFYKRGFFVTKKKYAVIDEEGKITTRGLEIVRRDWSEIAKETQARVLEALLKDGDVEKAVRIVKEVTEKLSKYEVPPEKLVIHEQITRDLKDYKATGPHVAVAKRLAARGVKIRPGTVISYIVLKGSGRIGDRAIPFDEFDPTKHKYDAEYYIENQVLPAVERILRAFGYRKEDLRYQKTRQVGLSAWLKPKGT
modifications: Thermococcus kodakarensis kod1; KODexo- DNA polymerase
For B1, in the data set on 5′Q-3′-Ga [3], the “conversion of 5′Q-3′-Ga” value came to 37%.

B2: I486W: 9° N-III mutant I486W, nucleotide binding pocket (protein)
chain: MILDTDYITENGKPVIRVFKKENGEFKIEYDRTFEPYFYALLKDDSAIEDVKKVTAKRHGTVVKVKRAEKVQKKFLGRPIEVWKLYFNHPQDVPAIRDRIRAHPAVVDIYEYDIPFAKRYLIDKGLIPMEGDEELTMLAFAIATLYHEGEEFGTGPILMISYADGSEARVITWKKIDLPYVDVVSTEKEMIKRFLRVVREKDPDVLITYNGDNFDFAYLKKRCEELGIKFTLGRDGSEPKIQRMGDRFAVEVKGRIHFDLYPVIRRTINLPTYTLEAVYEAVFGKPKEKVYAEEIAQAWESGEGLERVARYSMEDAKVTYELGREFFPMEAQLSRLIGQSLWDVSRSSTGNLVEWFLLRKAYKRNELAPNKPDERELARRRGGYAGGYVKEPERGLWDNIVYLDFRSSAVSIIITHNVSPDTLNREGCKEYDVAPEVGHKFCKDFPGFIPSLLGDLLEERQKIKRKMKATVDPLEKKLLDYRQRLWKILANSFYGYYGYAKARWYCKECAESVTAWGREYIEMVIRELEEKFGFKVLYADTDGLHATIPGADAETVKKKAKEFLKYINPKLPGLLELEYEGFYVRGFFVTKKKYAVIDEEGKITTRGLEIVRRDWSEIAKETQARVLEAILKHGDVEEAVRIVKEVTEKLSKYEVPPEKLVIHEQITRDLRDYKATGPHVAVAKRLAARGVKIRPGTVISYIVLKGSGRIGDRAIPADEFDPTKHRYDAEYYIENQVLPAVERILKAFGYRKEDLRYQKTKQVGLGAWLKVKGKK
With B2, in the data set with 5′Q-3′-Ga [4], the “conversion rate (C.R.) of extension product” value (from here on “conversion rate”) came to 81%.

B3: D480H: KOD^exo− mutant D480H (protein)
chain: B2 chain with D480H, W486I
Take B3: in the data set with 5′Q-3′-Ga [3], the “conversion of 5′Q-3′-Ga” value was found to be 84%.

B4: D480I: 9° N-III mutant D480I, nucleotide binding pocket (protein)
chain: B2 chain with D480I, W486I
On to B4, for which the “conversion rate” value in the data set with 5′Q-3′-Ga [4] worked out at 82%.

B5: K477F: 9° N-III mutant K477F, nucleotide binding pocket (protein)
chain: B2 chain with K477F, W486I
For the molecule B5, the “conversion rate” value in the data set with 5′Q-3′-Ga [4] is recorded as 82%.

B6: D480M: 9° N-III mutant D480M, nucleotide binding pocket (protein)
chain: B2 chain with D480M, W486I
For B6, the “conversion rate” value in the data set with 5′Q-3′-Ga [4] turned out to be 80%.

B7: D480P: 9° N-III mutant D480P, nucleotide binding pocket (protein)
chain: B2 chain with D480P, W486I
For B7, the “conversion rate” value in the data set on 5′Q-3′-Ga [4] was found to be 82%.

B8: D480A: 9° N-III mutant D480A, nucleotide binding pocket (protein)
chain: B2 chain with D480A, W486I
Take B8: the “conversion rate” value in the data set on 5′Q-3′-Ga [4] stood at 81%.

B9: D480G: 9° N-III mutant D480G, nucleotide binding pocket (protein)
chain: B2 chain with D480G, W486I
As to B9, the “conversion rate” value in the data set with 5′Q-3′-Ga [4] is listed as 80%.

B10: V410P: 9° N-III mutant V410P, nucleotide binding pocket (protein)
chain: B2 chain with V410P, W486I
As for B10, the “conversion rate” value in the data set on 5′Q-3′-Ga [4] turned out to be 78%.

B11: I486Y: 9° N-III mutant I486Y, nucleotide binding pocket (protein)
chain: B2 chain with W486Y
Consider B11, for which the “conversion rate” value in the data set on 5′Q-3′-Ga [4] came out at 82%.

B12: D480W: KOD^exo− mutant D480W (protein)
chain: B2 chain with D480W, W486I
Take B12: the “conversion of 5′Q-3′-Ga” value with 5′Q-3′-Ga [3] was found to be 77%.

B13: V410G: 9° N-III mutant V410G, nucleotide binding pocket (protein)
chain: B2 chain with V410G, W486I
Regarding B13, in the data set on 5′Q-3′-Ga [4], the “conversion rate” value came out at 69%.

B14: D480N: KOD^exo− mutant D480N (protein)
chain: B2 chain with D480N, W486I
For the molecule B14, the “conversion of 5′Q-3′-Ga” value with 5′Q-3′-Ga [3] was 83%.

The values above are taken from patent US10662413B2, “Recombinant DNA polymerase for improved incorporation of nucleotide analogues” (PERSONAL GENOMICS, INC., priority 2016, dated 2020).
